Laboratory results published in patent US20220064330A1.

B1: bovine FXa (activated bovine clotting factor X) (protein)
chain: ANSFLEEVKQGNLERECLEEACSLEEAREVFEDAEQTDEFWSKYKDGDQCEGHPCLNQGHCKDGIGDYTCTCAEGFEGKNCEFSTREICSLDNGGCDQFCREERSEVRCSCAHGYVLGDDSKSCVSTERFPCGKFTQGRSRRWAIHTSEDALDASELEHYDPADLSPTESSLDLLGLNRTEPSAGEDGSQVVRIVGGRDCAEGECPWQALLVNEENEGFCGGTILNEFYVLTAAHCLHQAKRFTVRVGDRNTEQEEGNEMAHEVEMTVKHSRFVKETYDFDIAVLRLKTPIRFRRNVAPACLPEKDWAEATLMTQKTGIVSGFGRTHEKGRLSSTLKMLEVPYVDRSTCKLSSSFTITPNMFCAGYDTQPEDACQGDSGGPHVTRFKDTYFVTGIVSWGEGCARKGKFGVYTKVSNFLKWIDKIMKARAGAAGSRGHSEAPATWTVPPPLPL

Key:
[1] = biological target: complement C3 (UniProt P01024)
[2] = biological target: complement C3, P01024
complement C3, P01024, sequence (P01024 whole entry, looked up): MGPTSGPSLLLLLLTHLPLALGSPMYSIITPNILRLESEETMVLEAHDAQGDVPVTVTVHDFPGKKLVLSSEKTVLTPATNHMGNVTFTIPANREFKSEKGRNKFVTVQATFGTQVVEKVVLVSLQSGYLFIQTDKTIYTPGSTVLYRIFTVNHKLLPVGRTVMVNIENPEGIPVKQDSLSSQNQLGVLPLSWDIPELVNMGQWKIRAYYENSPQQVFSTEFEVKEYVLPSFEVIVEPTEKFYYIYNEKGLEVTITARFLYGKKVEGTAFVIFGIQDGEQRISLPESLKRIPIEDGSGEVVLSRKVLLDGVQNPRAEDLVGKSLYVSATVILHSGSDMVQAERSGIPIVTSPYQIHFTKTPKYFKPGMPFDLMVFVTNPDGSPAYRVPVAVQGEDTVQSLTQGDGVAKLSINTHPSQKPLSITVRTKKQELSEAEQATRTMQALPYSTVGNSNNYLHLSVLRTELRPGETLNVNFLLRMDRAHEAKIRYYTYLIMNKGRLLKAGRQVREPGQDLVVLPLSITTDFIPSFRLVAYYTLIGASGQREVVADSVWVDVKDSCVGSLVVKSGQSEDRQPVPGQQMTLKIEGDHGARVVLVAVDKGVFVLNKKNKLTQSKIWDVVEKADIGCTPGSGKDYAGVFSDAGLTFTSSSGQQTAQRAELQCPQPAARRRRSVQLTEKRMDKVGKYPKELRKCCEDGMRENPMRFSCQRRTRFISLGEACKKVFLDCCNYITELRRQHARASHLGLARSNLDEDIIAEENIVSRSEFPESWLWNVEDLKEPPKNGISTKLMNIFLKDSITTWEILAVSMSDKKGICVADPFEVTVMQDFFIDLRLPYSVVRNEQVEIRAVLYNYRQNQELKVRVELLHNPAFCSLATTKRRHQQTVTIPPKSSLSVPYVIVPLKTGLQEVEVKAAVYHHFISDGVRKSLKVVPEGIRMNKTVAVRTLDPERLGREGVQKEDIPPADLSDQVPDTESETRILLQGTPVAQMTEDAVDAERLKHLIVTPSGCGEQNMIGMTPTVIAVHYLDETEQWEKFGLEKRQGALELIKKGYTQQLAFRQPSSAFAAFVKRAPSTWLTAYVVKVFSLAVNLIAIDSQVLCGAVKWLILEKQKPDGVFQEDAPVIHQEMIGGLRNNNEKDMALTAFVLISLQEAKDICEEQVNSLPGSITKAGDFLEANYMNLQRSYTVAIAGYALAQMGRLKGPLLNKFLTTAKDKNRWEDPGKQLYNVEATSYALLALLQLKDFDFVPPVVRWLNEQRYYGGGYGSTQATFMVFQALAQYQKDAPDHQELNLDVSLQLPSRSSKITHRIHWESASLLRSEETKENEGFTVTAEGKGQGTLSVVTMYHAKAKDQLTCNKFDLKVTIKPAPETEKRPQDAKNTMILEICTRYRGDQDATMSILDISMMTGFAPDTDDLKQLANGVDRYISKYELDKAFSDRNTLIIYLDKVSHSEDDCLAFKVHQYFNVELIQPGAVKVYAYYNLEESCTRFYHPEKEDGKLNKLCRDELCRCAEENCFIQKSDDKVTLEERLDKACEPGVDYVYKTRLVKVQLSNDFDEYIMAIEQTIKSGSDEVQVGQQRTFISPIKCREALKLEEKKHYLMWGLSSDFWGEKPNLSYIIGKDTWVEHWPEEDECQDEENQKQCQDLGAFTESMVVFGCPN

Molecule | cleavage of the C3 a-chain to the a' chain (Western blot) [1] | cleavage of the C3 a-chain to the a' chain (Western blot) [2]
human FXa (activated human clotting factor X) | can cleave C3 in vitro in the absence of any complement proteases | 
human FXIa (activated human clotting factor XI) | can cleave C3 in vitro in the absence of any complement proteases | 
B1 |  | can cleave C3 in vitro in the absence of any complement proteases
